Key:
[1] = target: thrombospondin (TSP), immobilized (UniProt P07996); assay: cytoadherence assay, IEs on immobilized TSP, mean and SD of triplicates
[2] = target: Partially purified CD36 (CD36 fraction) from human platelets, immobilized (human) (UniProt P16671); assay: cytoadherence assay, IEs on immobilized CD36, mean and SD of triplicates
Sequence of Partially purified CD36 (CD36 fraction) from human platelets, immobilized (human) (P16671 2-472 limits assumed, form in doubt): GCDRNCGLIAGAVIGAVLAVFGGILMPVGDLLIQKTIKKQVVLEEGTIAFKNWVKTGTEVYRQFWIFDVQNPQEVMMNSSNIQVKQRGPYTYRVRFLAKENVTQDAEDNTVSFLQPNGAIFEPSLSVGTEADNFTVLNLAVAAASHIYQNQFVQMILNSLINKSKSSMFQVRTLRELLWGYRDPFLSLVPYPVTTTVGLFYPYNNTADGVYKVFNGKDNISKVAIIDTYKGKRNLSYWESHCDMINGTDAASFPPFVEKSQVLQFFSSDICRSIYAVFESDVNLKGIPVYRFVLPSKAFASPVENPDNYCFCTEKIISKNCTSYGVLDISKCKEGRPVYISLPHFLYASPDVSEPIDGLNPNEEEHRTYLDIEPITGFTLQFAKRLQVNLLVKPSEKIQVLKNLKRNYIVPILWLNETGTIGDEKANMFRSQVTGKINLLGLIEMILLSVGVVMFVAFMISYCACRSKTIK

Sequence of thrombospondin (TSP), immobilized (P07996 19-1170 limits assumed): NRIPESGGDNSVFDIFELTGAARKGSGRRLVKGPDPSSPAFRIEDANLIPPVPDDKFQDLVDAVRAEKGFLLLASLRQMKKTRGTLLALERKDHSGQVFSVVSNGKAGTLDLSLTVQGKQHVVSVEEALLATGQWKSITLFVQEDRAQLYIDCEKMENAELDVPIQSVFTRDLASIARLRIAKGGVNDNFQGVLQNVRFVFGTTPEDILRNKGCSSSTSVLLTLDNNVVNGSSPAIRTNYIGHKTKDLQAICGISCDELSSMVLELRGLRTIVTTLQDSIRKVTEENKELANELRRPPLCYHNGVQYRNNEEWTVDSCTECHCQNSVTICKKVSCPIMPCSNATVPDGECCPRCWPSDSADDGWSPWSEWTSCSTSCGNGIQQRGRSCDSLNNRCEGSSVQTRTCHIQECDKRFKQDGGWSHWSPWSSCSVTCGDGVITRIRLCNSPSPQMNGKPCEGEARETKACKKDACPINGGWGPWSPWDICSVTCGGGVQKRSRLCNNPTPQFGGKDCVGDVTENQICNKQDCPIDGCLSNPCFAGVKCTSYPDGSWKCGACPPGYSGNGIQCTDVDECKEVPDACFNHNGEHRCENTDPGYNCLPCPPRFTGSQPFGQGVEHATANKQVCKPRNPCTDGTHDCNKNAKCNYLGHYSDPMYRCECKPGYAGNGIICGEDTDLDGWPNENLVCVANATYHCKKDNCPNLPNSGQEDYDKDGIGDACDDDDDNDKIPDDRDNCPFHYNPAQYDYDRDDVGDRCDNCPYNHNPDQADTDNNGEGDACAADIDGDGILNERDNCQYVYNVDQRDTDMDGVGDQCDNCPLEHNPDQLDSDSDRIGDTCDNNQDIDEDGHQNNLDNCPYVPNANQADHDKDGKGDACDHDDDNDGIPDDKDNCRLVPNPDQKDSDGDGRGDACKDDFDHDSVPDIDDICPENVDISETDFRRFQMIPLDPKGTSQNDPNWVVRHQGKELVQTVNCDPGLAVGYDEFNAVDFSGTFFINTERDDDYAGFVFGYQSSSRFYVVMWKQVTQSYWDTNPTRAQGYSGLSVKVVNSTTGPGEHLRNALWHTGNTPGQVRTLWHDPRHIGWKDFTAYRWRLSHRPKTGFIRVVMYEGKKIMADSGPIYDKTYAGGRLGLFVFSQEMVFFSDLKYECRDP

Chymotrypsin cleaved AE1 on infected erythrocytes (from UniProt P02730 1-911)
percentage of bound IEs/mm^2 as compared to untreated cells [1]: 81%
percentage of bound IEs/mm^2 as compared to untreated cells [2]: 10.2%

Source: patent US20050059588A1, “Peptides which generate antibodies resulting in lysis of pathologically adherent erythrocytes” (REGENTS OF THE UNIVERSITY OF CALIFORNIA, priority 2003, published 2005)
